Test results as given in the supplement of paper PMC5949888.

Each sequence was assayed on Saccharomyces cerevisiae PS128 hsf1 delta, HSF1(1-493) fusion (assay: growth estimate (transactivation domain function in HSF1 fusion, heat-shock survival) (a.u. (slope of normalised read count over time)); higher = stronger growth at 37°C, i.e. more transactivation activity). Conditions: library: design library.
Procedure, shortened: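 Designed transactivation-domain oligos were fused to truncated yeast HSF1 (amino acids 1–493) and expressed in an hsf1-deleted yeast strain. Cells were replica-plated onto –trp 5-FOA plates and incubated at 30°C or 37°C for 0, 2, 4, 6 and 8 days. Inserts were PCR-amplified and Illumina MiSeq-sequenced as six barcoded replicates from one experiment. Growth estimate is the slope of a robust linear fit over time of read counts normalised to sample totals and starting count.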
DLDESRDYIFETTE was tested, and the growth estimate was -0.153. Work on DFDLDMLGDFDLDKLG yielded a growth estimate of -0.158. For PGFPGIELQELQELQALLQQ, the growth estimate was -0.0439. EDDDGFSLWDSML showed a growth estimate of 0.241. In the case of MLSSHGPSVDTSALLDLFSP, the growth estimate is reported as -0.216. Sequence LFDADFLFGNDFA has a growth estimate of 0.761. Work on VADDIWEELLSEKL yielded a growth estimate of 3.04. Work on DFDLDMLGDFRLDMLG yielded a growth estimate of 0.535. MLSSHGFSVDTKALLDLFSP was tested, and the growth estimate was -0.145. EFNDLLDLKFILSN showed a growth estimate of -0.169. In the case of PEFPGIELQELQELAALLQQ, the growth estimate is reported as 0.178. EPDDEFSLWDSML showed a growth estimate of 0.531. PFRDTQDDFLKWWRSEEAQ gave a growth estimate of -0.0923. KLSSHGFSVDTSALLDLFSP was tested, and the growth estimate was -0.241. Work on EFNDLLDLDFILAN yielded a growth estimate of under -0.25. In the case of EFNDLLALDFILSN, the growth estimate is reported as -0.112. Work on PFPDTQDDFLKWWRGEEAQ yielded a growth estimate of 0.0794. For EDLYSILWSDVA, the growth estimate was 0.126. Sequence MKSSHGFSVDTSALLDLFSP has a growth estimate of -0.215. Work on MLSSHGFAVDTSALLDLFSP yielded a growth estimate of -0.142. EDDDEFSLWDSMK gave a growth estimate of under -0.25. Work on DFDLDMLGDKDLDMLG yielded a growth estimate of -0.188. In the case of QQNGEIAQLKDFN, the growth estimate is reported as -0.215. Work on PFADTQDDFLKWWRSEEAQ yielded a growth estimate of 0.444. In the case of PFPDTQDDFLPWWRSEEAQ, the growth estimate is reported as -0.145. With TMDDAYNYLFDD the growth estimate was -0.228. In the case of MLSSHGFSVDRSALLDLFSP, the growth estimate is reported as -0.204. In the case of EDLKSILWSDVY, the growth estimate is reported as under -0.25. Sequence MLSSPGFSVDTSALLDLFSP has a growth estimate of 0.169. DELSRIIELLEKDG gave a growth estimate of under -0.25. DGDLDMLGDFDLDMLG gave a growth estimate of 0.418. EDDDEFSLWDKML gave a growth estimate of -0.201. For LFDYDFLFGNDFK, the growth estimate was 2.23. TMDDVYNYLFRD gave a growth estimate of -0.0803. Sequence PEFPGIELQELQELQALLQK has a growth estimate of -0.125. LFDYDFLFGPDFA was tested, and the growth estimate was 10.1. Sequence GEFPGIELQELQELQALLQQ has a growth estimate of -0.114. Sequence EDDDEFALWDSML has a growth estimate of 0.128. In the case of EKLYSILWSDVY, the growth estimate is reported as -0.183. Sequence PEFPGIELQELQELQKLLQQ has a growth estimate of under -0.25. With TRDDVYNYLFDD the growth estimate was -0.222. In the case of EDLYPILWSDVY, the growth estimate is reported as under -0.25. LFDYGFLFGNDFA gave a growth estimate of 1.29. EDLYSILWSGVY showed a growth estimate of -0.0514. In the case of DFDLDMLGKFDLDMLG, the growth estimate is reported as 1.77. LFDGDFLFGNDFA showed a growth estimate of 1.7. Sequence PEFPGIELQALQELQALLQQ has a growth estimate of 0.169. In the case of DELAWIIELLEKDG, the growth estimate is reported as 0.883. Work on DFDLDMLGDFDLDMLK yielded a growth estimate of 1.65. Sequence GMDDVYNYLFDD has a growth estimate of 0.253. LFDYDALFGNDFA gave a growth estimate of 0.627. DFDLDMLGGFDLDMLG was tested, and the growth estimate was 2.09. Work on EDRYSILWSDVY yielded a growth estimate of -0.176. With PFPDTQPDFLKWWRSEEAQ the growth estimate was -0.22. EDDDEFSLWDSMP showed a growth estimate of -0.236. QQNGEIAQLWDFA gave a growth estimate of under -0.25. With PFPDTQDDFLKWWRSERAQ the growth estimate was under -0.25. PFPDTQDDFLKWWRSPEAQ gave a growth estimate of -0.176. DELSWIAELLEKDG gave a growth estimate of 0.851. Work on EDAYSILWSDVY yielded a growth estimate of -0.234. KLDESWDYIFETTE showed a growth estimate of -0.0907. QQNGEIAQLWKFN was tested, and the growth estimate was under -0.25. EFNDLLDLDFRLSN gave a growth estimate of 0.0126. Sequence GDDDEFSLWDSML has a growth estimate of 1.64. Sequence EDLYSILWRDVY has a growth estimate of -0.193. Sequence EDLYSILWSAVY has a growth estimate of -0.107. For DFDLDMLGDFDLRMLG, the growth estimate was 0.112. In the case of EDDKEFSLWDSML, the growth estimate is reported as -0.135. Sequence EDLYSILWGDVY has a growth estimate of -0.152. In the case of EDLPSILWSDVY, the growth estimate is reported as under -0.25. Sequence DLDESWDYRFETTE has a growth estimate of -0.247. In the case of LFDYDGLFGNDFA, the growth estimate is reported as 0.114. Work on PFPDAQDDFLKWWRSEEAQ yielded a growth estimate of -0.158. Work on DADESWDYIFETTE yielded a growth estimate of -0.164. LFDYDFLFGNDFA showed a growth estimate of 6.94. Sequence DELSWIIELREKDG has a growth estimate of -0.239. Work on LFDYDFLFGGDFA yielded a growth estimate of 5.98. Sequence VADDIWEELLREDL has a growth estimate of 10.8. For PDDDEFSLWDSML, the growth estimate was 1.67. PFPDTADDFLKWWRSEEAQ gave a growth estimate of 0.6. Work on MLSSHPFSVDTSALLDLFSP yielded a growth estimate of -0.195. Sequence LFDYDFLFGNPFA has a growth estimate of -0.0703. For MLSSHGFRVDTSALLDLFSP, the growth estimate was -0.241. EDDAEFSLWDSML showed a growth estimate of 0.0227. Sequence QQNGEIAQLWDAN has a growth estimate of -0.23. In the case of LFGYDFLFGNDFA, the growth estimate is reported as 1.68. EFNDLLDLDPILSN gave a growth estimate of -0.247. For LFDYDFLAGNDFA, the growth estimate was 0.0054. With LFPYDFLFGNDFA the growth estimate was 1.32. Work on PEAPGIELQELQELQALLQQ yielded a growth estimate of under -0.25. With PEFPGIELQELKELQALLQQ the growth estimate was under -0.25. DELSWIIELLEKKG was tested, and the growth estimate was under -0.25. Work on DLDESWDYIFRTTE yielded a growth estimate of 0.833. PEFPGIELQELQELKALLQQ showed a growth estimate of -0.22. With LFDYKFLFGNDFA the growth estimate was 0.0164. In the case of LFRYDFLFGNDFA, the growth estimate is reported as -0.0535. Work on DELSWIIELLPKDG yielded a growth estimate of -0.225. With GFDLDMLGDFDLDMLG the growth estimate was 1.03. DLDESWDYIFEATE showed a growth estimate of 2.47. In the case of KDLYSILWSDVY, the growth estimate is reported as -0.212. With PFPDTQDDFLKWWRSEEAG the growth estimate was 0.0636. PDLYSILWSDVY showed a growth estimate of -0.202. Work on MLSSHGFSVDTSALLKLFSP yielded a growth estimate of -0.216. Sequence DLDEGWDYIFETTE has a growth estimate of 0.787. In the case of DFDLDMLGDFDLDMGG, the growth estimate is reported as 16.5. Work on DLDESWDYIPETTE yielded a growth estimate of under -0.25. TKDDVYNYLFDD was tested, and the growth estimate was -0.238. With EDLYSILWSDVG the growth estimate was -0.0353. MLSSHGFSVDTSALLDLPSP was tested, and the growth estimate was under -0.25. Sequence ALDESWDYIFETTE has a growth estimate of 0.813. PRFPGIELQELQELQALLQQ gave a growth estimate of under -0.25. In the case of DELSWGIELLEKDG, the growth estimate is reported as under -0.25. VADDIWEELLSADL was tested, and the growth estimate was 3.11. With TMDDVYPYLFDD the growth estimate was 0.27. In the case of DFDLDMLGDFDLDMLA, the growth estimate is reported as 1.83. In the case of MLSSHGFSVDTSALLDLFGP, the growth estimate is reported as -0.17. Work on LFDYDFLRGNDFA yielded a growth estimate of -0.143. QQNGEIRQLWDFN was tested, and the growth estimate was -0.0449. TMDDVYNYLFDA showed a growth estimate of 0.681. For ALSSHGFSVDTSALLDLFSP, the growth estimate was 0.065. Sequence LFDYDFLFGNDAA has a growth estimate of 2.84. Work on VADDIWEELLSEAL yielded a growth estimate of 5.63. EDDPEFSLWDSML showed a growth estimate of 1.77. With EDLYKILWSDVY the growth estimate was -0.0738. For MLSPHGFSVDTSALLDLFSP, the growth estimate was 0.158. DFDLDMPGDFDLDMLG gave a growth estimate of 6.81. Work on DFDLDMLGAFDLDMLG yielded a growth estimate of 5.97. In the case of LFDYDFLFPNDFA, the growth estimate is reported as 4.58. EFADLLDLDFILSN showed a growth estimate of 0.75. With DELSWIRELLEKDG the growth estimate was 1.03. In the case of DFDLDMLGDFDLDRLG, the growth estimate is reported as 0.414. PFPDTQDDFLKWRRSEEAQ showed a growth estimate of -0.221. EDLYSGLWSDVY was tested, and the growth estimate was -0.186. In the case of EKDDEFSLWDSML, the growth estimate is reported as -0.193. PFPDTQRDFLKWWRSEEAQ was tested, and the growth estimate was -0.245. With EFNDLLDLDKILSN the growth estimate was -0.21. Sequence DELPWIIELLEKDG has a growth estimate of -0.193. In the case of EFNDLLDLDAILSN, the growth estimate is reported as 0.353. Sequence PEFPGIELQELQELGALLQQ has a growth estimate of -0.221. For MLSSHGFSVDTSALLDLFSK, the growth estimate was -0.245. TMDDVYNYLFAD was tested, and the growth estimate was 1.32. VADDIWEELPSEDL was tested, and the growth estimate was under -0.25. Sequence DLDESWDYKFETTE has a growth estimate of -0.178. EDDDEFSLRDSML showed a growth estimate of -0.248. DLDESWDYIFETGE was tested, and the growth estimate was 1.44. DELSWIGELLEKDG gave a growth estimate of -0.125. QQNGEIAQGWDFN gave a growth estimate of -0.247. With EFRDLLDLDFILSN the growth estimate was 0.421. ADLYSILWSDVY showed a growth estimate of -0.203. DFDADMLGDFDLDMLG showed a growth estimate of 6.93. In the case of MLSSHGFSVDTSAKLDLFSP, the growth estimate is reported as -0.237. Sequence EDDDEFSLWDSMR has a growth estimate of -0.239.
